B1: SM03 (antibody, V domains shown)
VH: QVQLQESGGGLVKPGGSLKLSCAASGFAFSIYDMSWVRQTPEKRLEWVAYISSGGGTTYYPDTVKGRFTISRDNAKNTLYLQMSSLKSEDTAMYYCARHSGYGSSYGVLFAYWGQGTLVTVSS
VL: DIQLTQTTSSLSASLGDRVTISCRASQDISNYLNWYQQKPDGTVKLLIYYTSILHSGVPSRFSGSGSGTDYSLTISNLEQEDFATYFCQQGNTLPWTFGGGTKLEIKR
notes: Chimeric antibody against human CD22: murine variable regions with human constant regions; The embodiments speak of an IgG1 heavy chain and kappa light chain constant region; also called anti-CD22 antibody SM03; chimeric anti-CD22 antibody
B2: SM06 (antibody, V domains shown)
VH: EVQLVESGGGLVQPGGSLRLSCAASGFSFSIYDMSWVRQAPGKGLEWVAYISSGGGTTYYPDTVKGRFTISRDNAKNSLYLQMNSLRVEDTALYYCARHSGYGSSYGVLFAYWGQGTLVTVSS
VL: DIQLTQSPSSLSASVGDRVTISCRASQDISNYLNWYQQKPGKAPKLLIYYTSILHSGVPSRFSGSGSGTEFTLTISSLQPEDFATYFCQQGNTLPWTFGGGTKVEIKR
notes: Framework-patched (humanized) anti-CD22 antibody with human constant regions; also called framework-patched (humanized) version of SM03

How the values were obtained:
[1] = molecular target: T1, LRID (murine IgG anti-idiotype antibody against the antigen binding site of SM03 and SM06); assay: direct ELISA, plate coated with LRID
T1 construct: An scFv from a phage library, re-engineered as a murine IgG; also called anti-idiotype antibody for SM03; surrogate antigen for CD22
T1 sequence (VH, as listed by the source, chain 1 of 2): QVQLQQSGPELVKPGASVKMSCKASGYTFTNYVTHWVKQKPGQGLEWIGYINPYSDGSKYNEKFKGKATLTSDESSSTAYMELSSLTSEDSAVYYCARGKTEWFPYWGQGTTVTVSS
T1 sequence (VL, as listed by the source, chain 2 of 2): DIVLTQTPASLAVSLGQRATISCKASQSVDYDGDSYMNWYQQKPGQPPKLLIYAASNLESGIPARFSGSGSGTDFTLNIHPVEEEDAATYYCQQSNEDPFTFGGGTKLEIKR

[2] = molecular target: T2, recombinant human CD22 encompassing domains 2-4 (CD22d2-4) (human, UniProt P20273 139-417); assay: direct ELISA, plate coated with CD22d2-4
T2 construct: also called domain 2-4 of recombinant human CD22 antigen

[3] = molecular target: T2, recombinant human CD22 encompassing …; assay: ELISA, plate coated with refolded CD22d2-4, % Binding
Experimental: Preliminary epitope mapping was done by expressing different combinations of extracellular domains encompassing the human CD22 sequence in bacteria and the refolded recombinant proteins were tested for binding to SM03 in an ELISA assay. […] There are 6 extracellular domains for human CD22 antigen that are expressed on the surface of matured B cells. […] Briefly, the DNA sequence encoding different domain regions of human CD22 were cloned into a pET bacterial expression vector preceded with a pelB sequence (as described in Ward et al. (1989) Nature 341:544-546). The expression vectors were used to transform bacterial host cell BL21 (DE3) pLysS (Promega, Madison, WI) using standard techniques in molecular biology: expression of the transfected genes were induced by the addition of 1 mM of isopropyle β-D-thiogalactoside (IPTG). After incubating at 37° C. for 4 hours with orbital shaking at 250 rpm, the bacteria were pelleted by centrifugation at 6,000 rpm for 15 minutes. Cells were lysed in lysis buffer (50 mM Tris-HCl, pH 8 containing 0.1 M NaCl, 5 mM EDTA, 0.1% NaN₃, 0.5% TritonX-100, 100 μM PMSF and 1 mM DTT) with the aid of a glass homogenizer. After French press treatment, 2.5 mM MgCl₂ was added to chelate the EDTA, and 0.1 mg/ml Lysozyme and 0.01 mg/ml DNase were added and the mixture was incubated at room temperature for 20 minutes. […]

[4] = molecular target: T3, human recombinant CD22 (PeproTech) (human, UniProt P20273 20-687, limits assumed); assay: SPR (BIAcore), CD22 immobilized on CM5 chip, SM03 injected
T3 construct: Bought protein immobilized on a CM5 chip; also called recombinant human CD22 antigen; human CD22 antigen
Experimental: Affinity of anti-CD22 antibodies against human CD22 was performed using BIAcore (GE Healthcare Life Sciences, Piscataway, NJ) according to standard procedures. Briefly, human recombinant CD22 (20 μg/ml, PeproTech, Rocky Hill, NJ) was immobilized on carboxymethylated dextran-coated CM5 sensor chip. The chip surface was firstly activated with N-ethyl-N′-(3-[…]) carbodiimide hydrochloride (EDC) and N-hydroxysuccinimide (NHS). […] The dissociation was studied by washing with running buffer for 3 min. The chip surface was then regenerated by injection with 50 mM glycine-Cl for 60 s. Kinetic parameters including ka (association rate constant) and kd (dissociation rate constant) were estimated using the BIA evaluation software. The specific binding curves were normalized by subtracting the control curve.

[5] = molecular target: LRID Fab fused to the transmembrane portion of glycophorin A, on SP2/0 cells (Fab-GlycoA); assay: cell-based or functional assay
LRID Fab fused to the transmembrane portion of glycophorin A, on SP2/0 cells (Fab-GlycoA), sequence (VH, as listed by the source, chain 1 of 2): as the sequence (VH, as listed by the source, chain 1 of 2) above
LRID Fab fused to the transmembrane portion of glycophorin A, on SP2/0 cells (Fab-GlycoA), sequence (VL, as listed by the source, chain 2 of 2): as the sequence (VL, as listed by the source, chain 2 of 2) above

[6] = molecular target: LRID Fab fused to the GPI signal sequence from decay accelerating factor (DAF), on SP2/0 cells (Fab-GPI); assay: cell-based or functional assay
LRID Fab fused to the GPI signal sequence from decay accelerating factor (DAF), on SP2/0 cells (Fab-GPI), sequence (VH, as listed by the source, chain 1 of 2): as the sequence (VH, as listed by the source, chain 1 of 2) above
LRID Fab fused to the GPI signal sequence from decay accelerating factor (DAF), on SP2/0 cells (Fab-GPI), sequence (VL, as listed by the source, chain 2 of 2): as the sequence (VL, as listed by the source, chain 2 of 2) above

Row | Binder | EC50 [1] [µg/mL] | EC50 [2] [µg/mL] | EC50 (read off the curve) [3] [µg/mL] | Ka [4] [M⁻¹] | Kd [4] [nM] | koff [4] [s⁻¹] | kon [4] [M⁻¹ s⁻¹] | CMC killing of surrogate target cells, EC50 [5] [µg/mL] | CMC killing of surrogate target cells, EC50 [6] [µg/mL]
1 | B1 | 0.08 | 0.1 | ~0.02 | 8.2e+08 | 1.22 | 0.0137 | 1.13e+07 | 130 | 220
2 | B2 | 0.065 | 0.14 | – | – | – | – | – | – | –

— US20250136683A1 (SINOMAB BIOSCIENCE, published 2025)
